The record followed here is paper PMC3695523, “Reconstitution and characterization of eukaryotic N6-threonylcarbamoylation of tRNA using a minimal enzyme system” (Nucleic Acids Research, 2013).

Data set [1] deals with the molecule itself. Nature of the data set: crystal structure; Qri7 30-407 at 10 mg/ml, 0.1 M Tris-HCl pH 7.5, 8% PEG8000, 0.2 M MgCl2, 4°C; homodimer by crystallographic symmetry.
Data set [2] deals with the molecule itself. Nature of the data set: AUC; sedimentation velocity, 20°C, 42 000 rpm, 0.3125, 0.0625, 0.125, 0.250, 0.5 or 1 mg/ml protein.
Data set [3] concerns the molecule itself. Nature of the data set: AUC; dimerization dissociation constants of the interface mutants (Supplementary Figure S5B); whether from equilibrium or velocity runs is not stated; 20°C; dimer to monomers.
Data set [4] deals with the molecule itself. Nature of the data set: AUC; sedimentation equilibrium, 20°C, 0.25, 0.5 and 1 mg/ml, 10 000, 12 000, 15 000 rpm; fitted to a monomer-dimer model; dimer to monomers.

Numbering of substitutions follows the chain as printed. In names and notes the source's numbering stands.

B1: Saccharomyces cerevisiae Qri7 (amino acids 30-407), crystallised form (enzyme, UniProt P43122 30-407, looked up)
chain: RKGYKVLAIETSCDDTCVSVLDRFSKSAAPNVLANLKDTLDSIDEGGIIPTKAHIHHQARIGPLTERALIESNAREGIDLICVTRGPGMPGSLSGGLDFAKGLAVAWNKPLIGVHHMLGHLLIPRMGTNGKVPQFPFVSLLVSGGHTTFVLSRAIDDHEILCDTIDIAVGDSLDKCGRELGFKGTMIAREMEKFINQDINDQDFALKLEMPSPLKNSASKRNMLSFSFSAFITALRTNLTKLGKTEIQELPEREIRSIAYQVQESVFDHIINKLKHVLKSQPEKFKNVREFVCSGGVSSNQRLRTKLETELGTLNSTSFFNFYYPPMDLCSDNSIMIGWAGIEIWESLRLVSDLDICPIRQWPLNDLLSVDGWRTDQL
modifications: seleno-methionine (a seleno-methionine crystal data set was collected)
notes: One protomer in the asymmetric unit; the homodimer is made by crystallographic symmetry; also called scQri7; not shown: His6, N-terminal, cleaved
Take B1: in data set [1], the binding result is recorded as “binds”.

B2: Qri7 (30-407) R207A (enzyme, yeast (Saccharomyces cerevisiae), UniProt P43122 30-407, looked up)
chain: B1 chain with R178A
notes: Qri7, S. cerevisiae, amino acids 30-407, catalytic cleft mutant; source: E. coli BL21 (DE3) CodonPlus, purified (Ni-NTA or glutathione sepharose, SEC)
For orientation: stoichiometry N means a count of units in the complex or per binding partner. As to B2, the “stoichiometry N” value in data set [2] was found to be 2.

B3: Qri7 (30-407) S258A (enzyme, yeast (Saccharomyces cerevisiae), UniProt P43122 30-407, looked up)
chain: B1 chain with S229A
notes: as for B2
For the protein B3, the “stoichiometry N” value in data set [2] is 2.

B4: Qri7 (30-407) K130A (enzyme, yeast (Saccharomyces cerevisiae), UniProt P43122 30-407, looked up)
chain: B1 chain with K101A
notes: Qri7, S. cerevisiae, amino acids 30-407, dimer interface mutant; also called K130A mutant; source: E. coli BL21 (DE3) CodonPlus, purified (Ni-NTA or glutathione sepharose, SEC)
By Kd is commonly meant the constant that tells how readily two partners part at equilibrium. Read a low Kd as a tighter complex. For B4, the Kd in data set [3] is 2.5 ± 0.2 µM.

B5: Qri7 (30-407) D43A (enzyme, yeast (Saccharomyces cerevisiae), UniProt P43122 30-407, looked up)
chain: B1 chain with D14A
notes: as for B2
As for B5, in data set [2], the “stoichiometry N” value is 2.

B6: Qri7 (30-407) I77E (enzyme, yeast (Saccharomyces cerevisiae), UniProt P43122 30-407, looked up)
chain: B1 chain with I48E
notes: as for B2
In the case of B6, in data set [2], the “stoichiometry N” value turned out to be 2.

B7: Qri7 (residues 30-407), wild type, as used for analytical ultracentrifugation (enzyme, yeast (Saccharomyces cerevisiae), UniProt P43122 30-407, looked up)
chain: B1 chain
notes: Qri7, S. cerevisiae, amino acids 30-407; also called wild-type Qri7; source: E. coli BL21 (DE3) CodonPlus, purified (Ni-NTA or glutathione sepharose, SEC)
Regarding B7, in data set [2], the “stoichiometry N” value was determined as 2. In data set [4], this protein yielded a Kd of 0.06 µM.

B8: Qri7 (30-407) R104A (enzyme, yeast (Saccharomyces cerevisiae), UniProt P43122 30-407, looked up)
chain: B1 chain with R75A
notes: Qri7, S. cerevisiae, amino acids 30-407, dimer interface mutant; also called R104A mutant; source: E. coli BL21 (DE3) CodonPlus, purified (Ni-NTA or glutathione sepharose, SEC)
The protein B8 displayed a Kd in data set [3] of 3 ± 0.3 µM.

B9: Qri7 (30-407) D44A (enzyme, yeast (Saccharomyces cerevisiae), UniProt P43122 30-407, looked up)
chain: B1 chain with D15A
notes: as for B2
Turning to B9, the “stoichiometry N” value in data set [2] was 2.
